The text below walks through data of patent US20030236190A1 (published 2003).

Positions of bridges follow the written chain, without caps; N, C: chain ends. Chains are numbered I, II in the order given. No end group written: not given here.

The chains are these.
B1: S169 (peptide)
peptide 1: XFHENFYDWFVRQVSKK
peptide 2: XFHENFYDWFVRQVSKK
modifications: N-terminal Lig coupled to linker 12
notes: dimer, N-N
B2: S172 (peptide)
peptide 1: XFHENFYDWFVRQVSKK
peptide 2: XFHENFYDWFVRQVSKK
modifications: N-terminal Lig coupled to linker 14
notes: dimer, N-N
B3: S170 (peptide)
peptide 1: CGFHENFYDWFVRQVSKK
peptide 2: CGFHENFYDWFVRQVSKK
modifications: bridge I:1-II:1; also: homodimer, N-N, linked at cysteines, type of link not given here
notes: dimer, N-N; also called 3170 (so in the source)

In the experiment the target is T1, human insulin receptor (HIR) (human, UniProt P06213 28-1382, limits assumed).
T1 construct: Detergent-solubilised receptor; The natural receptor is an alpha2-beta2 heterotetramer cleaved from one precursor
The experiment in a line: 125I-insulin displacement, solubilised HIR.
The molecule HPSTNQMLMKLFK [S123] yielded a Kd of 16 µM.
Then NSFYEALRMLSSK [S121], with 3.1 µM; and SLNFYDALQLLAKK [S119], with 1.8 µM; and HPPLSELKLFLIKK [S124], with 23 µM.
For SDGFYNAIELLS [S118], the Kd was 2.4 µM.
The result for FHENFYDWFVRQASKK [S106] reads 0.42 µM; that for B1, 0.58 µM; that for B2, 4.8 µM.
As to SSNFYQALMLLS [S129], the Kd came to 2.9 µM.
Then HDPFYSMMKSLLK [S120], with 2 µM.
CGFHENFYDWFVRQVSKK (also called 3171 (so in the source)) [S171] gave a Kd of 2.9 µM.
NGVERAGTGDNFYDWFVAQLH [S176] gave a Kd of 0.47 µM.
Turning to EFHENFYDWFVRQVSEE [S115], binding was characterised by a dissociation constant (Kd) of 0.65 µM.
Molecule AAAAFYDWFAAAAAKK [S168] yielded a Kd of 3.8 µM.
The result for FHENFYDWFVRAVSKK [S107] reads 1 µM.
Consider B3, for which the Kd came out at 0.7 µM.
The molecule AHENFYDWFVRQVSKK [S113] returned a Kd of 0.59 µM.
FHENFYDWFVAQVSKK [S108]: the affinity, expressed as Kd, was 0.75 µM.
FHENFYDWFVRQVAKK [S105] showed a Kd of 0.31 µM.
For the molecule EHWNTVDPFYFTLFEWLRESG [S177], the Kd is 2.7 µM.
Then HETFYSMIRSLAK [S117], with 2.7 µM; and FHENFYDWFVRQVSK (also called D117/H2C) [S158], with 0.81 µM; and FAENFYDWFVRQVSKK [S112], with 0.61 µM.
The molecule HPTSKEIYAKLLK [S122] gave a Kd of 9.3 µM.
PLAELWAYFEHSEQGRSSAH [S174] came in with a Kd of 16 µM.
